Targets include PDLIM1, O00151; DLG1_2, Q12959; LIMK2, P53671; DLG4_2, P78352; Inadl_5, Q8NI35; Inadl_3, Q8NI35; FRMPD2_3, Q68DX3; TJP1_3, Q07157.
Holding throughout (assay): holdup assay
Parameters in all cases: key: below the threshold = too weak to quantify, mostly under pKd 3.1 to 4
Holding throughout (settings): plain residues with an end cap or a label only (N-terminal biotin on a linker: ado-ado)

A further assay has as its target T1, RAPGEF6, Q8TEU7.
T1 sequence (Q8TEU7 525-625, limits assumed, looked up): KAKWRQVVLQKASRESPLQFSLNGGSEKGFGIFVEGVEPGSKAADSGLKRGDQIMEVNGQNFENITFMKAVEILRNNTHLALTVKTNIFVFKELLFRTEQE

Another assay addresses T2, PDZD2_2, O15018.
T2 sequence (O15018 329-429, limits assumed, looked up): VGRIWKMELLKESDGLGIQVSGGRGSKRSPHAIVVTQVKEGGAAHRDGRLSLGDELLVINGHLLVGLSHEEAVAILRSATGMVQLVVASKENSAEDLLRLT

The target of the next assay is T3, NHERF3_1, Q5T2W1.
T3 sequence (Q5T2W1 4-100, limits assumed, looked up): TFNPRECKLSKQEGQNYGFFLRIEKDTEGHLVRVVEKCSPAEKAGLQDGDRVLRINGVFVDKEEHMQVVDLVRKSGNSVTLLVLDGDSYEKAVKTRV

A further assay deals with T4, APBA2_2, Q99767.
T4 sequence (Q99767 654-744, limits assumed, looked up): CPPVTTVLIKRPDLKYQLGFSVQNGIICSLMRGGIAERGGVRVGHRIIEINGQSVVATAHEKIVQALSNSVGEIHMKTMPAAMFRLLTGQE

Another assay addresses T5, ARHGAP21, Q5T5U3.
T5 sequence (Q5T5U3 45-169, limits assumed, looked up): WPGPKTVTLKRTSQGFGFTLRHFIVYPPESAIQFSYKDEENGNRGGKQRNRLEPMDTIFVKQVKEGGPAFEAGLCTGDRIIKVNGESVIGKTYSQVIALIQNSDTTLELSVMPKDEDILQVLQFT

Another assay has as its target T6, TIAM2, Q8IVF5.
T6 sequence (Q8IVF5 885-986, limits assumed, looked up): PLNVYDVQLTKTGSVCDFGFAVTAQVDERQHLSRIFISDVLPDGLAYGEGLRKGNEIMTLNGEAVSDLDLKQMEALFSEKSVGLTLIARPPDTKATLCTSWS

The target in the next assay is T7, SNTB1, Q13884.
T7 sequence (Q13884 107-205, limits assumed, looked up): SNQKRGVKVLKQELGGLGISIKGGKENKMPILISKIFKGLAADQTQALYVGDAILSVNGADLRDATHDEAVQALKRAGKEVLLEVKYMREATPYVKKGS

Another assay addresses T8, SNTG1, Q9NSN8.
T8 sequence (Q9NSN8 52-150, limits assumed, looked up): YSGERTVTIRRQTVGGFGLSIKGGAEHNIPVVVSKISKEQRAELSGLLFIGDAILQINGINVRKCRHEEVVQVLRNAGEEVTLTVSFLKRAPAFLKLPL

The next assay concerns the target T9, MPP6, Q9NZW5.
T9 sequence (Q9NZW5 125-219, limits assumed, looked up): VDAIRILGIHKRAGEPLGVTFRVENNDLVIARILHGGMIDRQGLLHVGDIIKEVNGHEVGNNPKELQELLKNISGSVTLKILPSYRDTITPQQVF

The target in a further assay is T10, DVL3, Q92997.
T10 sequence (Q92997 244-331, limits assumed, looked up): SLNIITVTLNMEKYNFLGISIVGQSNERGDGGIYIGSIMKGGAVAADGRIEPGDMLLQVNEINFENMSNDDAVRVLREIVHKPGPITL

In the next assay the target is T11, DLG3_2, Q92796.
T11 sequence (Q92796 221-321, limits assumed, looked up): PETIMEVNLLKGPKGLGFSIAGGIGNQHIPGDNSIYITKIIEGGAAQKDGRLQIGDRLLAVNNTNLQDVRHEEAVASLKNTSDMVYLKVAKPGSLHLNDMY

The next assay deals with T12, LNX2_3, Q8N448.
T12 sequence (Q8N448 463-564, limits assumed, looked up): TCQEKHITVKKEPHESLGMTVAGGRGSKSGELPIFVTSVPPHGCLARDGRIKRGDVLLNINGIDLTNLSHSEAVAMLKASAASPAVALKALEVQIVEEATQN

The next assay has as its target T13, HTRA4, P83105.
T13 sequence (P83105 378-476, limits assumed, looked up): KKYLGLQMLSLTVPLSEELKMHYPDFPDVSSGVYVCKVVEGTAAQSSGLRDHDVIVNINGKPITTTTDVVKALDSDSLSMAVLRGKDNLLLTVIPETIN

A further assay deals with T14, RADIL, Q96JH8.
T14 sequence (Q96JH8 971-1071, limits assumed, looked up): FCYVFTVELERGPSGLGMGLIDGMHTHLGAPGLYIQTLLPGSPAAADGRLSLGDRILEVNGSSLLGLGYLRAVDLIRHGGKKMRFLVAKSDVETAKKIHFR

DLG4_2, P78352, sequence (P78352 155-259): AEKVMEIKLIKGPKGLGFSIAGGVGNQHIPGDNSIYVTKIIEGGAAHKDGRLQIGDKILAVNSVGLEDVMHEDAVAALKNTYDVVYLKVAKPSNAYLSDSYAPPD
LIMK2, P53671, sequence (P53671 143-248): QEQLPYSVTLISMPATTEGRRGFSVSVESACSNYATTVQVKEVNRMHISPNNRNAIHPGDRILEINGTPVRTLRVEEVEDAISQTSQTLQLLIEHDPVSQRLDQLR
PDLIM1, O00151, sequence (O00151 1-87): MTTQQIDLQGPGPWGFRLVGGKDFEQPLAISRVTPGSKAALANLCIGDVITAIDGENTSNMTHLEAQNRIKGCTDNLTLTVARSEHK
TJP1_3, Q07157, sequence (Q07157 416-512): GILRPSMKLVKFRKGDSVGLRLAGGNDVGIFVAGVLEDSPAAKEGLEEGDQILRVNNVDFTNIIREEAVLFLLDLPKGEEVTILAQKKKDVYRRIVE
Inadl_5, Q8NI35, sequence (Q8NI35 673-780): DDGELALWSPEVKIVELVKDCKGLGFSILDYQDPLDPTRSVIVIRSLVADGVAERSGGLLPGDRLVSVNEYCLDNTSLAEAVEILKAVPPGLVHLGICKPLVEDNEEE
Inadl_3, Q8NI35, sequence (Q8NI35 359-469): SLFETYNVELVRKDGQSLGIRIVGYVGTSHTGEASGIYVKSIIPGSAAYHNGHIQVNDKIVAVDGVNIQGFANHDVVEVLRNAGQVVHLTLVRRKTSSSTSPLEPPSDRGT
DLG1_2, Q12959, sequence (Q12959 314-412): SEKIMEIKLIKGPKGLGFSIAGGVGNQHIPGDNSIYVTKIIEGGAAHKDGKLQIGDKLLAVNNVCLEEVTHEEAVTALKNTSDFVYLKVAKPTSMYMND
FRMPD2_3, Q68DX3, sequence (Q68DX3 1073-1166): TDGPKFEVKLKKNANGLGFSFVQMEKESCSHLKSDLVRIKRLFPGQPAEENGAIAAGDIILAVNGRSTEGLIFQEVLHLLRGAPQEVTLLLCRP

Turning to DSEEELPTRL [GRK6, P43250], the pKd result was “below the threshold” with RAPGEF6, Q8TEU7; 3.71 with PDZD2_2, O15018; “below the threshold” in the assay with PDLIM1, O00151; “below the threshold” with DLG1_2, Q12959; 4.06 with NHERF3_1, Q5T2W1; “below the threshold” with APBA2_2, Q99767. For the same molecule, the pKd result with LIMK2, P53671 is “below the threshold”; with DLG4_2, P78352, “below the threshold”; with Inadl_5, Q8NI35, “below the threshold”; in the assay with ARHGAP21, Q5T5U3, 4.22; in the assay with Inadl_3, Q8NI35, “below the threshold”; with TIAM2, Q8IVF5, “below the threshold”. Also, the pKd result with SNTB1, Q13884 was “below the threshold”; with FRMPD2_3, Q68DX3, 3.53; in the assay with SNTG1, Q9NSN8 it was “below the threshold”; with MPP6, Q9NZW5, “below the threshold”; with DVL3, Q92997, “below the threshold”; with DLG3_2, Q92796, 3.66. Besides, the pKd result with LNX2_3, Q8N448 is “below the threshold”; in the assay with HTRA4, P83105, 3.92; in the assay with RADIL, Q96JH8, “below the threshold”; in the assay with TJP1_3, Q07157 it was “below the threshold”.

On to PLATCDETSI [SEMA4F, O95754], for which the pKd entry with RAPGEF6, Q8TEU7 is “below the threshold”; with PDZD2_2, O15018 it was 4.47; with PDLIM1, O00151, “below the threshold”; with DLG1_2, Q12959, 3.92; with NHERF3_1, Q5T2W1, 3.74; with APBA2_2, Q99767, “below the threshold”. The pKd result with LIMK2, P53671 is “below the threshold”; with DLG4_2, P78352 it was 3.67; with Inadl_5, Q8NI35, “below the threshold”; with ARHGAP21, Q5T5U3 it was “below the threshold”; with Inadl_3, Q8NI35 it was “below the threshold”; in the assay with TIAM2, Q8IVF5, 4.08. The pKd in the assay with SNTB1, Q13884 is 4.51; with FRMPD2_3, Q68DX3, “below the threshold”; with SNTG1, Q9NSN8 it was 4.53; in the assay with MPP6, Q9NZW5, “below the threshold”; with DVL3, Q92997 it was “below the threshold”; in the assay with DLG3_2, Q92796 it was 4.3. Also, the pKd result in the assay with LNX2_3, Q8N448 is recorded as “below the threshold”; with HTRA4, P83105, “below the threshold”; with RADIL, Q96JH8, “below the threshold”; with TJP1_3, Q07157, “below the threshold”.

On to FVFESRKEIL [TBPL1, P62380], for which the pKd result with RAPGEF6, Q8TEU7 was “below the threshold”; in the assay with PDZD2_2, O15018, “below the threshold”; with PDLIM1, O00151 it was “below the threshold”; in the assay with DLG1_2, Q12959, “below the threshold”; with NHERF3_1, Q5T2W1, “below the threshold”; with APBA2_2, Q99767, “below the threshold”. The pKd result is “below the threshold” with LIMK2, P53671; “below the threshold” with DLG4_2, P78352; “below the threshold” in the assay with Inadl_5, Q8NI35; 3.83 in the assay with ARHGAP21, Q5T5U3; “below the threshold” in the assay with Inadl_3, Q8NI35; “below the threshold” with TIAM2, Q8IVF5. Moreover, the pKd entry with SNTB1, Q13884 was “below the threshold”; with FRMPD2_3, Q68DX3, “below the threshold”; in the assay with SNTG1, Q9NSN8 it was “below the threshold”; with MPP6, Q9NZW5, 3.53; in the assay with DVL3, Q92997 it was “below the threshold”; with DLG3_2, Q92796, “below the threshold”. The pKd result is “below the threshold” with LNX2_3, Q8N448; “below the threshold” in the assay with HTRA4, P83105; “below the threshold” with RADIL, Q96JH8; “below the threshold” in the assay with TJP1_3, Q07157.

In the case of RDYTQSSSSL [GRM5, P41594], the pKd result with RAPGEF6, Q8TEU7 is “below the threshold”; with PDZD2_2, O15018, 3.83; in the assay with PDLIM1, O00151, “below the threshold”; with DLG1_2, Q12959, “below the threshold”; in the assay with NHERF3_1, Q5T2W1, 5.02; in the assay with APBA2_2, Q99767, “below the threshold”. In addition, the pKd result with LIMK2, P53671 was “below the threshold”; in the assay with DLG4_2, P78352 it was “below the threshold”; with Inadl_5, Q8NI35, “below the threshold”; in the assay with ARHGAP21, Q5T5U3, 4.17; with Inadl_3, Q8NI35, “below the threshold”; with TIAM2, Q8IVF5, 3.8. The pKd result was “below the threshold” with SNTB1, Q13884; “below the threshold” with FRMPD2_3, Q68DX3; “below the threshold” in the assay with SNTG1, Q9NSN8; “below the threshold” with MPP6, Q9NZW5; “below the threshold” with DVL3, Q92997; 3.96 with DLG3_2, Q92796. The pKd result in the assay with LNX2_3, Q8N448 was “below the threshold”; with HTRA4, P83105 it was 3.85; with RADIL, Q96JH8, “below the threshold”; in the assay with TJP1_3, Q07157, “below the threshold”.

KPDKQEEFYA [SDC3, O75056]: the pKd result with RAPGEF6, Q8TEU7 is recorded as “below the threshold”; with PDZD2_2, O15018, “below the threshold”; with PDLIM1, O00151, “below the threshold”; in the assay with DLG1_2, Q12959, “below the threshold”; with NHERF3_1, Q5T2W1, “below the threshold”; with APBA2_2, Q99767 it was “below the threshold”. Also, the negative-log Kd (pKd) result with LIMK2, P53671 is “below the threshold”; with DLG4_2, P78352 it was “below the threshold”; with Inadl_5, Q8NI35 it was “below the threshold”; with ARHGAP21, Q5T5U3 it was “below the threshold”; in the assay with Inadl_3, Q8NI35 it was “below the threshold”; with TIAM2, Q8IVF5, 4.04. The pKd result was “below the threshold” with SNTB1, Q13884; “below the threshold” with FRMPD2_3, Q68DX3; “below the threshold” in the assay with SNTG1, Q9NSN8; 3.77 in the assay with MPP6, Q9NZW5; “below the threshold” with DVL3, Q92997; 4.05 in the assay with DLG3_2, Q92796. The pKd result in the assay with LNX2_3, Q8N448 is given as “below the threshold”; in the assay with HTRA4, P83105, “below the threshold”; with RADIL, Q96JH8 it was “below the threshold”; with TJP1_3, Q07157, “below the threshold”.
